Patent US11904004B2, “Anti-CD277 antibodies” (INSTITUT NATIONAL DE LA SANTE ET DE LA RECHERCHE MEDICALE …, priority 2010, dated 2024)

System: CD4+ T cells
Assay: Functional assay on CD4+ T cells with aAPC, CFSE labeling and cytokine ELISA
Format: cell-based, human
Protocol: Human CD4^+ T cells were purified by negative selection from PBMCs using magnetic beads (Miltenyi Biotec) according to the manufacturer's protocol. CD4+ T cells were routinely more than 97% pure.
CD4^+ T cells were labelled with 0.5 μM CFSE (Invitrogen) for 10 min at 37° C., washed and stimulated (1.5×10^5 cells/well) with aAPC at a ratio of 1:1 (cells to beads) comprised of magnetic beads in triplicate in 96-well round-bottom plates (Falcon; BD Biosciences). Cultures were incubated at 37° C., 5% CO2 for 5 days and then proliferation of CFSE labelled CD4^+ T cells were measured by flow cytometry (FACS Canto, […]).
Magnetic beads (DYNABEADS® M-450 Epoxy, Dynal Biotech) were coated with the following mAbs as described in Serriari et al. (serriari, ji 2010): anti-CD3 (OKT3), anti-human CD28 (CD28.2), and/or various concentrations of anti-human CD277 (CD277, 20.1) or IgG1 or anti-MHC class I (MHC I) (YJ4) or IgG1. These aAPCs were coated with suboptimal anti-CD3 Ab (5%), suboptimal levels of anti-CD28 Ab (10%), and either IgG1 Ab (CD3/CD28/IgG1), anti-CD277 Ab (CD3/CD28/CD277+IgG1) or anti-MHC class I (CD3/28/anti-MHC class I+IgG1), constituting the remaining 85% of protein added to the bead. The amount of protein was kept constant at […] by the addition of control IgG 1. […]

B1: mAb 20.1: murine anti-CD277 antibody obtainable from the hybridoma CNCM I-4402; agonist (antibody, V domains shown)
VH: QVQLQQSGAELVKPGASVKLSCKASGYTFTRYYLYWVKQRPGQGLEWIGEINPNNGGTKFNEKFKSKATLTVDKSSRTTYIQLSSLTSEDSAVYYCSREDDYDGTPDAMDYWGQGTAVTVSS
VL: DIQMNQSPSSLSASLGDTITITCHASQNINLWLSWYQQRPGNIPKLLIYRASNLHTGVPSRFSGSGSATGFTLTISSLQPEDIATYYCQQGHSYPYTFGGGTKLDIK
- secretion of cytokines induced by anti-CD3 and anti-CD28 stimulation (INFg, IL-2, IL-10) (dose-dependent, supernatants day 2): increased
- cells entered division (CFSE dilution) (with anti-CD3 plus anti-CD28 on beads, day 5, anti-CD277 at 17 μg/ml): 90%
